# Results: PMC8200818, “SPECT/CT Imaging, Biodistribution and Radiation Dosimetry of a ^177Lu-DOTA-Integrin αvβ6 Cystine Knot Peptide in a Pancreatic Cancer Xenograft Model” (Frontiers in Oncology, 2021)
# Test: in vivo
# Conditions: female, mouse, iv, 1 MBq, total radioactivity; for tissue uptake at 24 h / tissue uptake at 72 h / tissue uptake at 48 h / tissue uptake at 192 h: athymic NMRI-Foxn1^nu/Foxn1^nu
# Description: For in vivo experiments, at least 8-week-old female athymic NMRI-Foxn1^nu/Foxn1^nu mice (Janvier Labs, Saint-Berthevin, France) were used. Animal care followed institutional guidelines and all experiments were approved by local animal research authorities. For the generation of tumor xenografts, 5 x 10^6 cells of Capan-2 cells were inoculated subcutaneously into the left and right shoulder (1:1 phosphate-buffered saline [PBS]/Matrigel Basement Membrane Matrix High Concentration, Corning, Corning, USA). Tumors were allowed to grow for two to four weeks (tumor volume > 100 mm^3) after cell inoculation.
# Radiolabeling of the DOTA-integrin αvβ6 knottin was carried out manually using [^177Lu]LuCl3 and a reagent kit from ITG Isotope Technologies Garching GmbH (Garching, Germany). A total of 40 µL (stock solution of peptide at 1 µg/µL in 10% DMSO in water) was added to 500 µL of ascorbate buffer solution pH 5.0, prepared from the kit (composition not disclosed by vendor) and the resulting mixture was then added to 35 µL of [^177Lu]LuCl3 (2 GBq in aqueous 0.04 M HCl) and the reaction mixture was heated at 80 °C for 35 minutes followed by cooling for 10 minutes at room temperature. The product was then diluted with 0.5 mL of saline and the pH was adjusted to 7 using a 1 M aqueous solution of NaHCO3 prior to injection in mice. A reverse-phase HPLC system (Knauer GmbH, Germany) with a column (Eurospher II, C18, 250 × 4 mm) was used to determine the radiochemical purity of the radiotracer. The HPLC system was equipped with an Azura P.6.1L pump coupled with ultraviolet (Azura UVD 2.1L) and radiometric (γ-Raytest-Isotopenmessgeraete GmbH, Germany) detectors. The gradient elution system used mobile phase A (100% acetonitrile) and mobile phase B (deionized H2O containing 0.1% trifluoroacetic acid) and a flow rate of 1.0 mL/min. Starting with 0% A and 100% B, the gradient was increased to 100% A over 25 min and finally returned to initial gradient conditions within 5 min.
# Tumor-bearing mice (n=4-5 per time point) were injected with approximately 1 MBq (22 pmol) of ^177Lu-DOTA-integrin αvβ6 knottin to the tail vein via a catheter. Mice (n=4-5 per time point) were sacrificed and dissected one, two, three and eight days post injection. Tumor, blood, stomach, pancreas, small intestine, colon, liver, spleen, kidney, heart, lung, muscle and femur samples were weighed and uptake of radioactivity was measured by a gamma counter.
structure (smiles),measurement,setting,value
"CC[C@H](C)[C@@H]1NC(=O)[C@@H](NC(=O)CNC(=O)CN2CCN(CC(=O)O)CCN(CC(=O)O)CCN(CC(=O)O)CC2)CSSC[C@@H]2NC(=O)[C@H](C)NC(=O)CNC(=O)[C@@H]3CCCN3C(=O)[C@@H]3CSSC[C@@H](C(=O)NCC(=O)O)NC(=O)[C@H](Cc4ccc(O)cc4)NC(=O)CNC(=O)[C@H](CC(N)=O)NC(=O)CNC(=O)[C@H](CCCNC(=N)N)NC(=O)[C@H](CSSC[C@H](NC(=O)[C@H](CCCNC(=N)N)NC(=O)[C@H](Cc4ccccc4)NC(=O)[C@H](CC(C)C)NC(=O)[C@H](CC(C)C)NC(=O)[C@H]([C@@H](C)O)NC(=O)CNC(=O)[C@H](CC(C)C)NC(=O)[C@H](CC(=O)O)NC(=O)[C@H]([C@@H](C)O)NC(=O)[C@H](CCCNC(=N)N)NC(=O)CNC(=O)[C@H](CC(N)=O)NC(=O)[C@H](CC(C)C)NC1=O)C(=O)N[C@@H](CCCNC(=N)N)C(=O)N[C@@H](CCCNC(=N)N)C(=O)N[C@@H](CC(=O)O)C(=O)N[C@@H](CO)C(=O)N[C@@H](CC(=O)O)C(=O)N3)NC(=O)[C@H]([C@@H](C)CC)NC2=O [^177Lu-DOTA-integrin αvβ6 knottin, metal not drawn]",tissue to tissue ratio at 192 h,"NMRI-Foxn1^nu/Foxn1^nu (athymic nude), tumor/pancreas",38.7
same,tissue uptake at 24 h,"blood, Blood activity, 24 h p.i., ~1 MBq i.v., nude mice, Capan-2 xenografts, mean ± SD (4 ≤ n ≤ 5)",0.01 %ID/g
same,tissue uptake at 72 h,"blood, Blood activity, 72 h p.i., ~1 MBq i.v., nude mice, Capan-2 xenografts, mean ± SD (4 ≤ n ≤ 5)",0.01 %ID/g
same,tissue uptake at 24 h,"femur, Femur uptake, 24 h p.i., ~1 MBq i.v., nude mice, Capan-2 xenografts, mean ± SD (4 ≤ n ≤ 5)",0.3 %ID/g
same,tissue uptake at 48 h,"femur, Femur uptake, 48 h p.i., ~1 MBq i.v., nude mice, Capan-2 xenografts, mean ± SD (4 ≤ n ≤ 5)",0.45 %ID/g
same,tissue uptake at 72 h,"femur, Femur uptake, 72 h p.i., ~1 MBq i.v., nude mice, Capan-2 xenografts, mean ± SD (4 ≤ n ≤ 5)",0.13 %ID/g
same,tissue uptake at 192 h,"femur, Femur uptake, 192 h p.i., ~1 MBq i.v., nude mice, Capan-2 xenografts, mean ± SD (4 ≤ n ≤ 5)",0.07 %ID/g
same,tissue uptake at 24 h,"heart, Heart uptake, 24 h p.i., ~1 MBq i.v., nude mice, Capan-2 xenografts, mean ± SD (4 ≤ n ≤ 5)",0.16 %ID/g
same,tissue uptake at 48 h,"heart, Heart uptake, 48 h p.i., ~1 MBq i.v., nude mice, Capan-2 xenografts, mean ± SD (4 ≤ n ≤ 5)",0.07 %ID/g
same,tissue uptake at 72 h,"heart, Heart uptake, 72 h p.i., ~1 MBq i.v., nude mice, Capan-2 xenografts, mean ± SD (4 ≤ n ≤ 5)",0.08 %ID/g
same,tissue uptake at 192 h,"heart, Heart uptake, 192 h p.i., ~1 MBq i.v., nude mice, Capan-2 xenografts, mean ± SD (4 ≤ n ≤ 5)",0.04 %ID/g
same,tissue uptake at 24 h,"kidney, Kidney uptake, 24 h p.i., ~1 MBq i.v., nude mice, Capan-2 xenografts, mean ± SD (4 ≤ n ≤ 5)",19.2 %ID/g
same,tissue uptake at 48 h,"kidney, Kidney uptake, 48 h p.i., ~1 MBq i.v., nude mice, Capan-2 xenografts, mean ± SD (4 ≤ n ≤ 5)",12.5 %ID/g
same,tissue uptake at 72 h,"kidney, Kidney uptake, 72 h p.i., ~1 MBq i.v., nude mice, Capan-2 xenografts, mean ± SD (4 ≤ n ≤ 5)",14.7 %ID/g
same,tissue uptake at 192 h,"kidney, Kidney uptake, 192 h p.i., ~1 MBq i.v., nude mice, Capan-2 xenografts, mean ± SD (4 ≤ n ≤ 5)",2.28 %ID/g
same,tissue uptake at 24 h,"kidney, Kidney uptake, day 1 p.i., ~1 MBq i.v., Capan-2 xenograft mice",19.2 ± 2.5 %ID/g
same,tissue uptake at 72 h,"kidney, Kidney uptake, day 3 p.i., ~1 MBq i.v., Capan-2 xenograft mice",14.7 ± 4.5 %ID/g
same,tissue uptake at 192 h,"kidney, Kidney uptake, day 8 p.i., ~1 MBq i.v., Capan-2 xenograft mice",2.3 ± 0.4 %ID/g
same,tissue uptake at 24 h,"lung, Lung uptake, 24 h p.i., ~1 MBq i.v., nude mice, Capan-2 xenografts, mean ± SD (4 ≤ n ≤ 5)",1.74 %ID/g
same,tissue uptake at 48 h,"lung, Lung uptake, 48 h p.i., ~1 MBq i.v., nude mice, Capan-2 xenografts, mean ± SD (4 ≤ n ≤ 5)",0.53 %ID/g
same,tissue uptake at 72 h,"lung, Lung uptake, 72 h p.i., ~1 MBq i.v., nude mice, Capan-2 xenografts, mean ± SD (4 ≤ n ≤ 5)",0.52 %ID/g
same,tissue uptake at 192 h,"lung, Lung uptake, 192 h p.i., ~1 MBq i.v., nude mice, Capan-2 xenografts, mean ± SD (4 ≤ n ≤ 5)",0.06 %ID/g
same,tissue uptake at 24 h,"muscle, Muscle uptake, 24 h p.i., ~1 MBq i.v., nude mice, Capan-2 xenografts, mean ± SD (4 ≤ n ≤ 5)",0.26 %ID/g
same,tissue uptake at 48 h,"muscle, Muscle uptake, 48 h p.i., ~1 MBq i.v., nude mice, Capan-2 xenografts, mean ± SD (4 ≤ n ≤ 5)",0.11 %ID/g
same,tissue uptake at 72 h,"muscle, Muscle uptake, 72 h p.i., ~1 MBq i.v., nude mice, Capan-2 xenografts, mean ± SD (4 ≤ n ≤ 5)",0.1 %ID/g
same,tissue uptake at 192 h,"muscle, Muscle uptake, 192 h p.i., ~1 MBq i.v., nude mice, Capan-2 xenografts, mean ± SD (4 ≤ n ≤ 5)",0.04 %ID/g
same,tissue uptake at 24 h,"pancreas, Pancreas uptake, 24 h p.i., ~1 MBq i.v., nude mice, Capan-2 xenografts, mean ± SD (4 ≤ n ≤ 5)",0.65 %ID/g
same,tissue uptake at 48 h,"pancreas, Pancreas uptake, 48 h p.i., ~1 MBq i.v., nude mice, Capan-2 xenografts, mean ± SD (4 ≤ n ≤ 5)",0.17 %ID/g
same,tissue uptake at 72 h,"pancreas, Pancreas uptake, 72 h p.i., ~1 MBq i.v., nude mice, Capan-2 xenografts, mean ± SD (4 ≤ n ≤ 5)",0.29 %ID/g
same,tissue uptake at 192 h,"pancreas, Pancreas uptake, 192 h p.i., ~1 MBq i.v., nude mice, Capan-2 xenografts, mean ± SD (4 ≤ n ≤ 5)",0.03 %ID/g
same,tissue uptake at 192 h,"spleen, Spleen uptake, 192 h p.i., ~1 MBq i.v., nude mice, Capan-2 xenografts, mean ± SD (4 ≤ n ≤ 5)",0.04 %ID/g
same,tissue uptake at 24 h,"stomach, Stomach uptake, 24 h p.i., ~1 MBq i.v., nude mice, Capan-2 xenografts, mean ± SD (4 ≤ n ≤ 5)",1.92 %ID/g
same,tissue uptake at 48 h,"stomach, Stomach uptake, 48 h p.i., ~1 MBq i.v., nude mice, Capan-2 xenografts, mean ± SD (4 ≤ n ≤ 5)",1.01 %ID/g
same,tissue uptake at 72 h,"stomach, Stomach uptake, 72 h p.i., ~1 MBq i.v., nude mice, Capan-2 xenografts, mean ± SD (4 ≤ n ≤ 5)",0.83 %ID/g
same,tissue uptake at 192 h,"stomach, Stomach uptake, 192 h p.i., ~1 MBq i.v., nude mice, Capan-2 xenografts, mean ± SD (4 ≤ n ≤ 5)",0.14 %ID/g
same,tissue uptake at 24 h,"tail, Tail activity, 24 h p.i., ~1 MBq i.v., nude mice, Capan-2 xenografts, mean ± SD (4 ≤ n ≤ 5)",0.31 %ID/g
same,tissue uptake at 48 h,"tail, Tail activity, 48 h p.i., ~1 MBq i.v., nude mice, Capan-2 xenografts, mean ± SD (4 ≤ n ≤ 5)",0.2 %ID/g
same,tissue uptake at 24 h,"tumor, Tumor uptake, 24 h p.i., ~1 MBq (22 pmol) i.v., nude mice, Capan-2 xenografts, mean ± SD (4 ≤ n ≤ 5)",3.13 %ID/g
same,tissue uptake at 24 h,"tumor, Tumor uptake, day 1 p.i., ~1 MBq i.v., Capan-2 xenografts, mean ± S.E.M.",3.1 ± 0.6 %ID/g
same,tissue uptake at 48 h,"tumor, Tumor uptake, day 2 p.i., ~1 MBq i.v., Capan-2 xenografts, mean ± S.E.M.",2.5 ± 0.4 %ID/g
same,tissue uptake at 72 h,"tumor, Tumor uptake, day 3 p.i., ~1 MBq i.v., Capan-2 xenografts, mean ± S.E.M.",3.5 ± 0.9 %ID/g
same,tissue uptake at 192 h,"tumor, Tumor uptake, day 8 p.i., ~1 MBq i.v., Capan-2 xenografts, mean ± S.E.M.",1.2 ± 0.2 %ID/g
